System: peptide library, one residue held at a place counted from the Y acceptor
Test: relative phosphorylation of the sub-library (ratio to the mean residue at this position); higher = residue favoured
Procedure, shortened: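 Every value reflects phosphorylation relative to the mean randomized residue. The sum of the 18 randomized residues, or 16 in the Ser/Thr-free library, served to normalize intensities at each position, which were then multiplied by that number. Intensities came from phosphorimaging with ImageQuant of biotinylated Tyr-centred peptides captured on streptavidin membranes after 90 min with purified recombinant kinases and 50 μM ATP plus γ-32P-ATP.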

Chain of ZAP70, construct: Full length, human (P43403 whole entry, looked up): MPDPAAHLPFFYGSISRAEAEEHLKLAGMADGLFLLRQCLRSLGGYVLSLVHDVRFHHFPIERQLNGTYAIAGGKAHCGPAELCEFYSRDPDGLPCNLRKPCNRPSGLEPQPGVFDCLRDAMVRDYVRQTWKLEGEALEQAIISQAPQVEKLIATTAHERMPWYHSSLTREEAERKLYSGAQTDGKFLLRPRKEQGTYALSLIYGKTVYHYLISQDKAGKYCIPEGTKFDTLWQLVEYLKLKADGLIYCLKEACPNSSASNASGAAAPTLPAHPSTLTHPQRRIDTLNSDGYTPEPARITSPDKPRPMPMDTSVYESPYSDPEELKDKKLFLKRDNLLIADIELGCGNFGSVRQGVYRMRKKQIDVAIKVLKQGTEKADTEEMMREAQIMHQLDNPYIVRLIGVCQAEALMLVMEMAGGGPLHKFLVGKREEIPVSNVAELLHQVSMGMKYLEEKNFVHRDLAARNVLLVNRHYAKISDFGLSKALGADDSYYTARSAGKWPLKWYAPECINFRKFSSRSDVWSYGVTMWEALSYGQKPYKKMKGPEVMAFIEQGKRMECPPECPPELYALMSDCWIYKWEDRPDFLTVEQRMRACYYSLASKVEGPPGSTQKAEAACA
Chain of TYRO3, construct: aa455-end, human (Q06418 455-890, looked up): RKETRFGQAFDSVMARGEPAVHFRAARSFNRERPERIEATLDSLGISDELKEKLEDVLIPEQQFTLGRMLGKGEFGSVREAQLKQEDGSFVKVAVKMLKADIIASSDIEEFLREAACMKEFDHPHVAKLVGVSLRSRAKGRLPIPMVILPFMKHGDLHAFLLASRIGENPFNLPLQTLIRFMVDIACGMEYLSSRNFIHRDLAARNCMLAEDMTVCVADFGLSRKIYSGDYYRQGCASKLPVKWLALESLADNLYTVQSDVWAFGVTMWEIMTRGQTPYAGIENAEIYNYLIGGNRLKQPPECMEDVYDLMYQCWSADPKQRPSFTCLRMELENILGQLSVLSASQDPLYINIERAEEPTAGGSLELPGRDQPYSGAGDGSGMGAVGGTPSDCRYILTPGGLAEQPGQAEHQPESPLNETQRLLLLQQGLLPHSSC
Chain of WEE1, construct: aa215-end, human (P30291 215-646, looked up): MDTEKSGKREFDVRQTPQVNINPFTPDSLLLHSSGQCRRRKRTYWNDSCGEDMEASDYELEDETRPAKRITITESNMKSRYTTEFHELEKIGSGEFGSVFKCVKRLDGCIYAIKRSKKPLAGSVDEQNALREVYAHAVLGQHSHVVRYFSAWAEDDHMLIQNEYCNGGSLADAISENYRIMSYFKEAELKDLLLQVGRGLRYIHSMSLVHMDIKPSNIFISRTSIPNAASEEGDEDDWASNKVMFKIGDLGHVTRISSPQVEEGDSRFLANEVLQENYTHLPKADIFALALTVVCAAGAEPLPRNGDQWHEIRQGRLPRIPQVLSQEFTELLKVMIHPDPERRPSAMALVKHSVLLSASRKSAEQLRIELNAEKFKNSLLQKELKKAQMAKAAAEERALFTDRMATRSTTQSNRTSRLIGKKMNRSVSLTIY

TYRO3, construct: aa455-end, human (from UniProt Q06418)
relative phosphorylation
Conditions | at +1 | at +2 | at +3 | at +4 | at +5 | at -1 | at -2 | at -3 | at -4 | at -5
A fixed | 1.64 | 0.682 | 0.632 | 0.906 | 1.04 | 0.893 | 0.982 | 1 | 1.15 | 0.987
D fixed | 0.676 | 0.549 | 0.322 | 0.681 | 0.669 | 0.66 | 0.935 | 1.1 | 1.03 | 1.01
E fixed | 1.19 | 0.767 | 0.252 | 0.729 | 0.592 | 0.56 | 1.04 | 1.28 | 1.19 | 0.874
F fixed | 1.07 | 1.28 | 1.44 | 1.11 | 0.885 | 1.23 | 0.653 | 0.819 | 0.883 | 0.866
G fixed | 0.816 | 0.424 | 0.71 | 1.2 | 1.26 | 0.524 | 1.3 | 1.18 | 1.35 | 1.2
H fixed | 1.12 | 0.864 | 1.36 | 1.16 | 0.955 | 1.4 | 1.09 | 1.09 | 0.966 | 1.05
I fixed | 0.991 | 1.12 | 1.58 | 0.796 | 0.758 | 1.63 | 0.772 | 0.656 | 0.826 | 0.854
K fixed | 0.534 | 1.1 | 1.03 | 1.18 | 1.39 | 0.719 | 1.14 | 0.998 | 1.04 | 1.16
L fixed | 0.938 | 1.36 | 1.19 | 0.932 | 0.867 | 1.88 | 0.858 | 0.752 | 0.843 | 0.892
M fixed | 1.26 | 1.22 | 1.18 | 1.04 | 0.868 | 1.09 | 0.7 | 0.866 | 0.864 | 0.964
N fixed | 0.544 | 0.901 | 0.626 | 0.843 | 1.01 | 1.03 | 1.25 | 1.16 | 0.956 | 1.19
P fixed | 0.412 | 0.657 | 0.864 | 1.18 | 1.62 | 0.821 | 1.09 | 1.27 | 1.3 | 1.19
Q fixed | 1.13 | 0.962 | 0.795 | 1.07 | 0.936 | 0.837 | 1.23 | 1.06 | 1.22 | 1.06
R fixed | 0.597 | 1.13 | 1.2 | 1.28 | 1.33 | 0.655 | 1.04 | 0.959 | 1.06 | 1.19
S fixed | 1.25 | 0.799 | 0.718 | 1.01 | 1.06 | 0.849 | 1.28 | 1.2 | 0.866 | 0.977
T fixed | 1.2 | 0.996 | 0.808 | 0.85 | 0.982 | 1.07 | 1.13 | 1.09 | 0.775 | 0.884
V fixed | 1.37 | 1.21 | 1.26 | 0.876 | 0.831 | 1.16 | 0.868 | 0.755 | 0.803 | 0.785
W fixed | 1.25 | 1.98 | 2.04 | 1.16 | 0.946 | 1 | 0.649 | 0.764 | 0.888 | 0.868
pThr fixed | 1.04 | 0.889 | 0.217 | 0.396 | 0.43 | 0.664 | 0.826 | 0.977 | 0.895 | 0.854
pTyr fixed | 0.911 | 1.28 | 0.324 | 0.56 | 0.399 | 1.06 | 0.954 | 1.2 | 1.12 | 0.96

WEE1, construct: aa215-end, human (from UniProt P30291)
relative phosphorylation
Conditions | at +1 | at +2 | at +3 | at +4 | at +5 | at -1 | at -2 | at -3 | at -4 | at -5
A fixed | 0.635 | 0.703 | 0.557 | 0.811 | 0.707 | 0.72 | 0.888 | 0.817 | 0.926 | 1.01
D fixed | 0.354 | 0.437 | 0.425 | 0.604 | 0.562 | 0.619 | 0.593 | 0.846 | 0.849 | 0.957
E fixed | 0.445 | 0.474 | 0.464 | 0.697 | 0.657 | 0.467 | 0.742 | 0.901 | 1.22 | 0.881
F fixed | 0.997 | 1.33 | 0.969 | 0.816 | 0.746 | 2.25 | 0.867 | 1.26 | 1.13 | 1.14
G fixed | 1.03 | 0.713 | 0.776 | 0.921 | 0.88 | 0.693 | 1.54 | 1.06 | 1.24 | 1.15
H fixed | 0.739 | 0.685 | 0.93 | 0.927 | 1.05 | 1.04 | 0.85 | 0.748 | 0.809 | 0.762
I fixed | 1 | 1.04 | 1.2 | 0.781 | 0.881 | 1.15 | 0.943 | 1.24 | 1.21 | 1.03
K fixed | 1.44 | 1.9 | 2.15 | 2 | 1.9 | 0.93 | 1.04 | 1.1 | 0.986 | 1.1
L fixed | 0.815 | 0.945 | 0.806 | 0.752 | 0.833 | 1.61 | 0.866 | 1.11 | 1.05 | 1.15
M fixed | 0.892 | 1.03 | 0.922 | 1.11 | 0.9 | 1.2 | 0.741 | 1.06 | 0.977 | 1.01
N fixed | 0.952 | 0.875 | 0.74 | 0.762 | 0.89 | 1.45 | 1 | 0.817 | 0.747 | 0.872
P fixed | 0.598 | 0.573 | 0.636 | 0.758 | 0.755 | 0.753 | 0.84 | 1 | 0.995 | 0.956
Q fixed | 0.913 | 0.856 | 0.772 | 0.98 | 0.804 | 0.564 | 0.733 | 0.691 | 0.945 | 0.88
R fixed | 4.18 | 2.37 | 3.44 | 2.25 | 2.98 | 0.975 | 1.54 | 1.21 | 1.47 | 1.15
V fixed | 0.819 | 0.941 | 0.93 | 0.751 | 0.675 | 1.11 | 0.924 | 1.12 | 0.907 | 1.02
W fixed | 0.904 | 1.37 | 0.896 | 1.23 | 0.812 | 1.17 | 0.897 | 1.22 | 1.18 | 1.37
pThr fixed | 0.975 | 0.775 | 0.584 | 0.671 | 0.815 | 0.866 | 1.12 | 1.3 | 0.896 | 1.06
pTyr fixed | 1.06 | 1.05 | 0.703 | 0.834 | 0.882 | 7.21 | 1.38 | 1.76 | 1.33 | 1.25

ZAP70, construct: Full length, human (from UniProt P43403)
relative phosphorylation
Conditions | at +1 | at +2 | at +3 | at +4 | at +5 | at -1 | at -2 | at -3 | at -4 | at -5
A fixed | 1.06 | 0.821 | 0.963 | 0.884 | 1.33 | 0.998 | 0.898 | 0.967 | 1.56 | 1.12
D fixed | 0.587 | 0.722 | 0.434 | 1.07 | 1.28 | 3.39 | 1.51 | 2.04 | 1.67 | 1.57
E fixed | 1.29 | 1.08 | 0.275 | 1 | 1.28 | 1.95 | 2.19 | 2.09 | 2.51 | 1.4
F fixed | 1.5 | 1.2 | 0.924 | 0.707 | 0.618 | 0.579 | 0.492 | 0.617 | 0.494 | 0.863
G fixed | 0.481 | 0.544 | 0.842 | 1.14 | 1.63 | 0.746 | 1.56 | 1.1 | 1.43 | 1.58
H fixed | 1.33 | 0.773 | 0.947 | 1.21 | 0.872 | 0.946 | 1 | 0.848 | 0.854 | 1.15
I fixed | 0.769 | 0.724 | 1.11 | 0.548 | 0.423 | 0.956 | 0.413 | 0.588 | 0.561 | 0.684
K fixed | 0.553 | 0.811 | 0.389 | 1.01 | 0.858 | 0.496 | 0.629 | 0.638 | 0.609 | 0.847
L fixed | 0.761 | 0.949 | 0.956 | 0.764 | 0.55 | 0.796 | 0.465 | 0.559 | 0.571 | 0.553
M fixed | 0.97 | 0.827 | 1.98 | 0.997 | 0.83 | 0.671 | 0.633 | 0.54 | 0.618 | 0.947
N fixed | 0.635 | 1.01 | 0.499 | 0.731 | 0.967 | 1.2 | 1.52 | 1.53 | 0.822 | 1.26
P fixed | 0.314 | 0.988 | 2.61 | 1.77 | 2.28 | 0.594 | 0.845 | 1.06 | 1.76 | 1.08
Q fixed | 1.4 | 1.14 | 0.626 | 1.28 | 0.936 | 0.958 | 1.46 | 1.01 | 1.03 | 0.886
R fixed | 0.448 | 0.77 | 0.432 | 1 | 0.522 | 0.4 | 0.576 | 0.713 | 0.684 | 0.814
S fixed | 0.981 | 0.862 | 1.09 | 1.05 | 1.15 | 0.899 | 1.39 | 1.36 | 0.877 | 0.847
T fixed | 1.31 | 1.08 | 0.782 | 0.955 | 1.25 | 1.04 | 1.26 | 0.966 | 0.661 | 0.925
V fixed | 1.56 | 0.99 | 1.55 | 0.907 | 0.617 | 0.8 | 0.693 | 0.666 | 0.676 | 0.837
W fixed | 2.05 | 2.7 | 1.58 | 0.97 | 0.62 | 0.573 | 0.464 | 0.713 | 0.625 | 0.625
pThr fixed | 1.75 | 2.19 | 0.364 | 0.792 | 1.55 | 6.59 | 4.22 | 4.5 | 2.58 | 2.92
pTyr fixed | 14.8 | 2.62 | 0.501 | 0.573 | 1.09 | 16.3 | 3.62 | 4.31 | 3.03 | 2.17
